# In patent US20030211076A1, “Compositions and methods for treatment of proliferative disorders” (priority 2003, published 2003):
# Target: T1, lysyl oxidase (LO) (Bos taurus, UniProt P33072)
# T1 construct: per mature LO molecule (32 kD); from tissue
# T1 sequence (P33072 170-418): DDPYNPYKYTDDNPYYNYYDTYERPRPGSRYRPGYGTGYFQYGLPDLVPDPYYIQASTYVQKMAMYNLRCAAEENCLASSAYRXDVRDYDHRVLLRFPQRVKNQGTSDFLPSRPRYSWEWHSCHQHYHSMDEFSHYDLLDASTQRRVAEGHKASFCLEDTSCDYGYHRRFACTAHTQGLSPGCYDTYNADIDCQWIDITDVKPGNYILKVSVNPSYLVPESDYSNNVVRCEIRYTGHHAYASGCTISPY
# Experiment: LO-dependent H2O2 release, horseradish peroxidase-coupled fluorescence assay (substrate potential for LO)
# Format: biochemical
# Details: for substrate of LO (in words): factor as sole substrate, LO-dependent H2O2 release in vitro; for Oxidized Lysines per Molecule 37° C. / Oxidized Lysines per Molecule 55° C.: oxidation by LO in vitro; for Oxidized Lysines per Molecule 37° C.: 37° C. (molar ratio of H2O2 released per molecule of substrate)
# Description: The oxidation of a primary amine substrate by LO yields stoichiometric amounts of the corresponding aldehyde, hydrogen peroxide and ammonia, as shown: RCH2NH2+O2+H2O→RCHO+H2O2+NH3 (Kagan, 1986). To assess the substrate potential of FGF2, LO-dependent H2O2 release was monitored in assays using FGF2 as the sole substrate, using both the optimum temperature for LO activity of 55° C. and the physiological temperature of 37° C. (Trackman et al., 1981).
# LO reaction with FGF2 as a substrate was assessed by a horseradish peroxidase-coupled fluorescence assay for H2O2 production. Reaction mixtures contained 0.25 mg of sodium homovanillate(HVA), 40 μg of HRP, and FGF2 at doses as indicated below in 0.05 M sodium borate buffer, pH 8.2, in a final volume of 2 ml. Assays were initiated by the addition of LO to reaction mixtures. H2O2 release was continuously monitored at excitation and emission wavelengths of 315 and 425 nm, respectively, at a constant temperature of 55° C. or 37° C., as specified, in the thermostatted cuvette chamber of an SLM Aminco Bowman Series 2 Luminescence Spectrometer. All activity data were corrected for background rates of H2O2 release determined in complete assay mixtures supplemented with 200 μM BAPN, an irreversible inhibitor of LO. In FIG. 4, solid curves represent the time course of H2O2 release at 55° C. in the reaction of 0.16 μM LO with 0.23 (a), 0.45 (b) and 0.9 (c) μM FGF2, respectively. Dotted curve (d) represents the time course of H2O2 release in the reaction of 0.16 μM LO with 0.9 μM FGF2 at 37° C. The same data were obtained from three separate experiments.
# Using the fluorometric assay (Trackman et al., 1981) to monitor LO-dependent H2O2 release in vitro, the substrate potential of other growth factors was also assessed. Major members of the FGF family tested included FGF 1, 4, 5, 6, 7 and EGF (note: All factors are human recombinant forms purchased from R & D Systems, Inc., Minneapolis, Minn.).
# A human recombinant disulfide-linked dimer of VEGF165 (MW: 42 kDa)(R & D Systems) as a sole substrate was tested by using the standard in vitro LO catalysis assays as described above for FIG. 4 (Trackman et al., 1981). Curves represent the time course of H2O2 release at 55° C. (a) or 37° C. (b) in the reaction of 0.10 μM LO with 0.45 μM VEGF165. All activity data were corrected for background rates of H2O2 release determined in complete assay mixtures supplemented with the same amounts of LO preincubated with 100 μM BAPN for 15 min at 37° C. The same data were obtained from three separate experiments.
# The standard in vitro LO catalysis assays as described above for FIG. 4 (Trackman et al., 1981) using human recombinant PDGF-AB (R & D Systems) as a sole substrate was tested. […] In FIG. 19, curves represent the time course of H2O2 release at 55° C. (a) and 37° C. (b) in the reaction of 0.11 μM LO with 0.46 μM PDGF-AB, respectively. All activity data were corrected for background rates of H2O2 release determined in complete assay mixtures supplemented with the same amounts of LO preincubated with 100 μM BAPN for 15 minutes at 37° C. The same data were obtained from three separate experiments.
# To analyze the substrate potential of Tat, the standard in vitro LO catalysis assays as described in FIG. 4 (Trackman et al., 1981) was performed at the optimum temperature of 55° C. and at the physiological temperature of 37° C. A recombinant Tat with 9 lysines in a total of 86 amino acids was used as a sole substrate. FIG. 12A represents a dose and temperature-dependent response. Curves represent the time course of H2O2 release at 55° C. (solid) or 37° C. (dotted) in the reaction of 0.10 μM LO with 0.22 (a and d), 0.43 (b and e) and 0.85 (c and f) μM Tat, respectively. All activity data were corrected for background rates of H2O2 release determined in complete assay mixtures supplemented with the same amounts of LO preincubated with 100 μM BAPN for 15 min at 37° C. […]
Molecule,substrate of LO (in words),Oxidized Lysines per Molecule 37° C.,Oxidized Lysines per Molecule 55° C.
"FGF5: human recombinant fibroblast growth factor 5 (R & D Systems) (protein, UniProt P12034 21-268, looked up) Fibroblast growth factor 5: HGEKRLAPKGQPGPAATDRNPRGSSSRQSSSSAMSSSSASSSPAASLGSQGSGLEQSSFQWSPSGRRTGSLYCRVGIGFHLQIYPDGKVNGSHEANMLSVLEIFAVSQGIVGIRGVFSNKFLAMSKKGKLHASAKFTDDCKFRERFQENSYNTYASAIHRTEKTGREWYVALNKRGKAKRGCSPRVKPQHISTHFLPRFKQSEQPELSFTVTVPEKKKPPSPIKPKIPLSAPRKNTNSVKYRLKFRFG",substrates of LO,10.0,18.0
"FGF6: human recombinant fibroblast growth factor 6 (R & D Systems) (protein, UniProt P10767 38-208, looked up) Fibroblast growth factor 6: SPAGTRANNTLLDSRGWGTLLSRSRAGLAGEIAGVNWESGYLVGIKRQRRLYCNVGIGFHLQVLPDGRISGTHEENPYSLLEISTVERGVVSLFGVRSALFVAMNSKGRLYATPSFQEECKFRETLLPNNYNAYESDLYQGTYIALSKYGRVKRGSKVSPIMTVTHFLPRI",substrates of LO,3.1,7.2
"FGF4: human recombinant fibroblast growth factor 4 (R & D Systems) (protein, UniProt P08620 31-206, looked up) Fibroblast growth factor 4: APTAPNGTLEAELERRWESLVALSLARLPVAAQPKEAAVQSGAGDYLLGIKRLRRLYCNVGIGFHLQALPDGRIGGAHADTRDSLLELSPVERGVVSIFGVASRFFVAMSSKGKLYGSPFFTDECTFKEILLPNNYNAYESYKYPGMFIALSKNGKTKKGNRVSPTMKVTHFLPRL",substrates of LO,3.6,14.5
